Numbering of substitutions follows the chain as printed.
Legend:
Assay in all cases: EMSA; 160 uM protein, 120 nM RNA; 15 mM Tris-HCl pH 7.0, 150 mM NaCl, 10% glycerol, 2 U/ul RNase inhibitor, 22 C, 15 min; 6% native TBE PAGE in 0.5x TBE
Details in all cases: protein: recombinant; tags: N-terminal His6, thrombin site; label: 5'-6-FAM
Tric1 SAM domain WT = target: T1, Tric1 SAM domain WT (Arabidopsis thaliana, UniProt Q9SCK3)
T1 sequence: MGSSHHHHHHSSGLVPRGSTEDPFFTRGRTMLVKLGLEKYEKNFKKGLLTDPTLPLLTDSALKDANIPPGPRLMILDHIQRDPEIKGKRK

[1] = target: T2, Tric1 SAM domain Asp235Ala (Arabidopsis thaliana, UniProt Q9SCK3, D235A)
T2 sequence: T1 sequence with D64A

[2] = target: T3, Tric1 SAM domain Asp235Ala:Gly241Glu (Arabidopsis thaliana, UniProt Q9SCK3, D235A;G241E)
T3 sequence: T1 sequence with D64A, G70E

[3] = target: T4, Tric1 SAM domain Gly241Glu (Arabidopsis thaliana, UniProt Q9SCK3, G241E)
T4 sequence: T1 sequence with G70E

Question: Does UCGCUUUGCAUGCGA (structured_RNA) [tRNAala T-arm] bind (Tric1 SAM domain WT)?
Answer: Result: binds

Question: Does UCGCUUUGCAUGCGA (structured_RNA) [tRNAala T-arm] bind [1]?
Answer: Result: no binding

Question: Does UCGCUUUGCAUGCGA (structured_RNA) [tRNAala T-arm] bind [2]?
Answer: Result: no binding

Question: Does UCGCUUUGCAUGCGA (structured_RNA) [tRNAala T-arm] bind [3]?
Answer: Result: no binding

Source: paper PMC11063897, “Structural analysis of the SAM domain of the Arabidopsis mitochondrial tRNA import receptor”
